PMC4515032

Biological target: mCherry-tagged mutant Htt exon 1 (HttQ91)
Test: FRET or BRET

Substance: YFP-tagged wild-type Htt exon 1 (HttQ25) (domain or fragment)
- mean FRET efficiency: 16.3%
